Drawing on doi:10.1101/2021.01.06.425396, this text covers stoichiometry N for 1 molecule.

In the assay the target is T1, tetherin (Bst2), endogenous (human (endogenous in HeLa)), Q10589.
T1 chain: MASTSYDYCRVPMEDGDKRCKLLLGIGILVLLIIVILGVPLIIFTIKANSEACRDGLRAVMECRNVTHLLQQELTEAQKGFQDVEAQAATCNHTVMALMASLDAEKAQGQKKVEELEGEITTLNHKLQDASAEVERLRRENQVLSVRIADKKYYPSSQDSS
As to the kind of experiment: non-reducing SDS-PAGE and Western blot. Particulars: remark: other sources report otherwise. A general note: A western blot detects proteins with antibodies after separation by electrophoresis.

B1: tetherin (Bst2), endogenous, Q10589 1-161 (natural protein)
chain: T1 chain
As usually defined, the stoichiometry N is the number of molecules, sites or subunits per partner or assembly. B1 displayed a stoichiometry N of 2.
